Results published in paper PMC5523955.

Target: NCP^H2AK15ub (nucleosome core particle with linked H2A-H2B enzymatically ubiquitylated at H2A Lys15) (human) (UniProt P0CG47)
Experiment: ITC

Kd: 0.0252 µM
Substance: RAD18 (aa 198-240) (from UniProt Q9NS91 198-240) (domain or fragment)
